The text below walks through data of paper PMC10681739, “High-throughput data and modeling reveal insights into the mechanisms of cooperative DNA-binding by transcription factor proteins”.

This data set concerns the target ETS1:RUNX1 (Homo sapiens, UniProt P14921;Q01196 full;full). Description: gcPBM; 1 nM ETS1 + 25 nM RUNX1, anti-ETS1 signal, normalised. As to conditions: tags: N-terminal GST (pDEST15), kept (PMC6008103); copies: 1;1; label: surface-attached array probe.

Sequence of ETS1:RUNX1 (P14921 whole entry, chain 1 of 2): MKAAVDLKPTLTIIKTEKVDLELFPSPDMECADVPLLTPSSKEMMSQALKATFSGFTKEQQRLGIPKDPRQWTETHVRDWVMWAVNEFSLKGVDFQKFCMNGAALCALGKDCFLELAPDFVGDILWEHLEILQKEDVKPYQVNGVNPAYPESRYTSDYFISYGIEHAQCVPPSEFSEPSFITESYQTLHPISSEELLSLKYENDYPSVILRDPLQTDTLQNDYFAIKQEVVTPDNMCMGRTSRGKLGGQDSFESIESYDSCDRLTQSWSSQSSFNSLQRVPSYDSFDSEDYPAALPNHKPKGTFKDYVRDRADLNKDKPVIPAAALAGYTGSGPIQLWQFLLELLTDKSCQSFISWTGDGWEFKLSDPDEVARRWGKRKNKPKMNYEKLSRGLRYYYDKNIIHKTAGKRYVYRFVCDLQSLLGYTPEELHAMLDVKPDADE
Sequence of ETS1:RUNX1 (Q01196 whole entry, chain 2 of 2): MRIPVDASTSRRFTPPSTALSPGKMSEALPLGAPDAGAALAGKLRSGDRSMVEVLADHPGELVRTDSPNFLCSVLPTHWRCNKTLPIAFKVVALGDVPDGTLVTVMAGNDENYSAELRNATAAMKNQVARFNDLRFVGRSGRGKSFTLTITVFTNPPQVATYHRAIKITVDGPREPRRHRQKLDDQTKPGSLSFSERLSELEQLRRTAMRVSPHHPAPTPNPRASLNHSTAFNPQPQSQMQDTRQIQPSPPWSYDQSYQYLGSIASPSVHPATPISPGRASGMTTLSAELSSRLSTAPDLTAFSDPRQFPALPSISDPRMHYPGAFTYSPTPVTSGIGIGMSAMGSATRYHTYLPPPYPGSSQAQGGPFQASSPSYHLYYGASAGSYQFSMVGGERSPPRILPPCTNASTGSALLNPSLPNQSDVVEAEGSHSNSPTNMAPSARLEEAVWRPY

B1: Table S2 A row 1115 (dsDNA)
DNA 1: TCAATGACAGGAAGTTTTTAAACCACATACGGCTAA
DNA 2: TTAGCCGTATGTGGTTTAAAAACTTCCTGTCATTGA
B1: the binding signal was 9230 PBM fluorescence, median of replicate spots.

B2: Table S2 A row 1263 (dsDNA)
DNA 1: TCACATTTTGCCGGATGTGGGTTGAGGGCATGCTGC
DNA 2: GCAGCATGCCCTCAACCCACATCCGGCAAAATGTGA
B2: the binding signal is 14600 PBM fluorescence, median of replicate spots.

B3: Table S2 A row 1132 (dsDNA)
DNA 1: GCGCAAAGCCGGAAGGAGGGGTTTGCGGCTGGGGAG
DNA 2: CTCCCCAGCCGCAAACCCCTCCTTCCGGCTTTGCGC
Take B3: the binding signal is 7650 PBM fluorescence, median of replicate spots.

B4: Table S2 A row 397 (dsDNA)
DNA 1: AGGGGAGGAACCAGGAAGTTGTGGTAAACTGTAGCA
DNA 2: TGCTACAGTTTACCACAACTTCCTGGTTCCTCCCCT
Take B4: the binding signal was 15800 PBM fluorescence, median of replicate spots.

B5: Table S2 A row 524 (dsDNA)
DNA 1: TATCTCCTATCTCCAGGAAGTGGTTAGCCCTAGGAG
DNA 2: CTCCTAGGGCTAACCACTTCCTGGAGATAGGAGATA
On to B5, for which the binding signal is 9680 PBM fluorescence, median of replicate spots.

B6: Table S2 A row 147 (dsDNA)
DNA 1: GCAGTCAGAAGGTGCGGATGCGGTAAGGTATGCGCT
DNA 2: AGCGCATACCTTACCGCATCCGCACCTTCTGACTGC
For the molecule B6, the binding signal was 7480 PBM fluorescence, median of replicate spots.

B7: Table S2 A row 332 (dsDNA)
DNA 1: AACAGGAAGTGGTCTTAGAGATCATGCGGTTCAGAG
DNA 2: CTCTGAACCGCATGATCTCTAAGACCACTTCCTGTT
Regarding B7, the binding signal is 10100 PBM fluorescence, median of replicate spots.

B8: Table S2 A row 721 (dsDNA)
DNA 1: AGTGCAGAGTGGACAGGATGTGGTGGAGGTGAGAGA
DNA 2: TCTCTCACCTCCACCACATCCTGTCCACTCTGCACT
Take B8: the binding signal was 9260 PBM fluorescence, median of replicate spots.

B9: Table S2 A row 271 (dsDNA)
DNA 1: CACCCCCCCAGTGCAGGAAGTGGTTTTCGAGGGCAG
DNA 2: CTGCCCTCGAAAACCACTTCCTGCACTGGGGGGGTG
Consider B9, for which the binding signal was 14300 PBM fluorescence, median of replicate spots.

B10: Table S2 A row 1449 (dsDNA)
DNA 1: GGGTTGGGTGCCGGATGCGGTGAGTGAGGTTCTCAT
DNA 2: ATGAGAACCTCACTCACCGCATCCGGCACCCAACCC
As to B10, the binding signal was 10600 PBM fluorescence, median of replicate spots.

B11: Table S2 A row 911 (dsDNA)
DNA 1: TTACACAACAGGAAACTATGTTTAGCGGTTAATCCA
DNA 2: TGGATTAACCGCTAAACATAGTTTCCTGTTGTGTAA
B11: the binding signal was 9030 PBM fluorescence, median of replicate spots.

B12: Table S2 A row 1753 (dsDNA)
DNA 1: TGAAGCAGGCGGAAGTGCTGTGGTTTCTGGCGACTG
DNA 2: CAGTCGCCAGAAACCACAGCACTTCCGCCTGCTTCA
B12: the binding signal was 15300 PBM fluorescence, median of replicate spots.

B13: Table S2 A row 462 (dsDNA)
DNA 1: TTCAACAGGATGTGGGAACTTGACTCTCGCCGCAAA
DNA 2: TTTGCGGCGAGAGTCAAGTTCCCACATCCTGTTGAA
For the molecule B13, the binding signal was 13800 PBM fluorescence, median of replicate spots.

B14: Table S2 A row 990 (dsDNA)
DNA 1: TCCTAAAGCAGGAAATAGTGAGGCTACCGCAGTGTC
DNA 2: GACACTGCGGTAGCCTCACTATTTCCTGCTTTAGGA
Take B14: the binding signal was 8320 PBM fluorescence, median of replicate spots.

B15: Table S2 A row 1302 (dsDNA)
DNA 1: AACAGACAGGATGTGGCCTCTGCCAAAACCACCATC
DNA 2: GATGGTGGTTTTGGCAGAGGCCACATCCTGTCTGTT
B15: the binding signal was 12700 PBM fluorescence, median of replicate spots.

B16: Table S2 A row 702 (dsDNA)
DNA 1: CACCTCCTCTCCGGATGCGGTTTGTTCTGCTTGTAG
DNA 2: CTACAAGCAGAACAAACCGCATCCGGAGAGGAGGTG
B16: the binding signal was 12500 PBM fluorescence, median of replicate spots.

B17: Table S2 A row 338 (dsDNA)
DNA 1: GCCCAGGGCGGCCGGAAGTTTGCGGGGCGGGGCGGA
DNA 2: TCCGCCCCGCCCCGCAAACTTCCGGCCGCCCTGGGC
Consider B17, for which the binding signal is 16100 PBM fluorescence, median of replicate spots.

B18: Table S2 A row 568 (dsDNA)
DNA 1: GTGGGGCAGGATGTGCTTGCCTGGCTGCGGTTGGAC
DNA 2: GTCCAACCGCAGCCAGGCAAGCACATCCTGCCCCAC
Turning to B18, the binding signal is 11400 PBM fluorescence, median of replicate spots.

B19: Table S2 A row 288 (dsDNA)
DNA 1: CATAGACCGGATGCCTCGTCAACCACAGAAACCAAT
DNA 2: ATTGGTTTCTGTGGTTGACGAGGCATCCGGTCTATG
Regarding B19, the binding signal is 11200 PBM fluorescence, median of replicate spots.

B20: Table S2 A row 1548 (dsDNA)
DNA 1: TGCAGTCGTGAAAAAGGAAGTGGTTAAAGTGGCTAC
DNA 2: GTAGCCACTTTAACCACTTCCTTTTTCACGACTGCA
With B20, the binding signal is 12100 PBM fluorescence, median of replicate spots.

B21: Table S2 A row 456 (dsDNA)
DNA 1: AACAGGCAAAGGACAGGATGTGGTGAGCGTCGGCCC
DNA 2: GGGCCGACGCTCACCACATCCTGTCCTTTGCCTGTT
For B21, the binding signal was 10800 PBM fluorescence, median of replicate spots.

B22: Table S2 A row 309 (dsDNA)
DNA 1: CTTAGAGTACCAGGATGTGGTTTGGCCTGGGGGTGG
DNA 2: CCACCCCCAGGCCAAACCACATCCTGGTACTCTAAG
B22: the binding signal was 8550 PBM fluorescence, median of replicate spots.

B23: Table S2 A row 1174 (dsDNA)
DNA 1: CCTGCGGATCACGGAAGTGGCTGCGGTCGGCGCCAT
DNA 2: ATGGCGCCGACCGCAGCCACTTCCGTGATCCGCAGG
In the case of B23, the binding signal is 11700 PBM fluorescence, median of replicate spots.

B24: Table S2 A row 649 (dsDNA)
DNA 1: TCTGTCGTCCCACTTCCTGCTGCGGTTTCCACCTCG
DNA 2: CGAGGTGGAAACCGCAGCAGGAAGTGGGACGACAGA
For the molecule B24, the binding signal is 14900 PBM fluorescence, median of replicate spots.

B25: Table S2 A row 1364 (dsDNA)
DNA 1: CTCAGGGTACCAGGATGTGGTTTAGCTTAGGGGTGG
DNA 2: CCACCCCTAAGCTAAACCACATCCTGGTACCCTGAG
With B25, the binding signal was 9440 PBM fluorescence, median of replicate spots.

B26: Table S2 A row 513 (dsDNA)
DNA 1: AGGACGGGCGGAAGTGGCTGCGGTGGATGGTGGGAG
DNA 2: CTCCCACCATCCACCGCAGCCACTTCCGCCCGTCCT
Turning to B26, the binding signal was 14100 PBM fluorescence, median of replicate spots.

B27: Table S2 A row 517 (dsDNA)
DNA 1: GTTAGCGTGATCGGAGGATGTGGTTTTCCTCCCTCT
DNA 2: AGAGGGAGGAAAACCACATCCTCCGATCACGCTAAC
On to B27, for which the binding signal is 12400 PBM fluorescence, median of replicate spots.

B28: Table S2 A row 1404 (dsDNA)
DNA 1: ATAGACTCAGGAAGTGATTGTGGTAAGATTCTATAT
DNA 2: ATATAGAATCTTACCACAATCACTTCCTGAGTCTAT
For B28, the binding signal was 8880 PBM fluorescence, median of replicate spots.

B29: Table S2 A row 155 (dsDNA)
DNA 1: GGGACAGACTCTCCAGGATGTGGTTGGATTTTGGGC
DNA 2: GCCCAAAATCCAACCACATCCTGGAGAGTCTGTCCC
In the case of B29, the binding signal was 7450 PBM fluorescence, median of replicate spots.

B30: Table S2 A row 1276 (dsDNA)
DNA 1: ATTTCGCTGAAAACAGGAAACCACGAAGCCCAGATG
DNA 2: CATCTGGGCTTCGTGGTTTCCTGTTTTCAGCGAAAT
Turning to B30, the binding signal is 7820 PBM fluorescence, median of replicate spots.

B31: Table S2 A row 316 (dsDNA)
DNA 1: GGCCTGTCACACACAGGAAGCGGTCACAGAAAAGCT
DNA 2: AGCTTTTCTGTGACCGCTTCCTGTGTGTGACAGGCC
With B31, the binding signal is 7880 PBM fluorescence, median of replicate spots.

B32: Table S2 A row 132 (dsDNA)
DNA 1: CGTCTAATTGCAGGAAGTGGTTTGAAATGTTAATCT
DNA 2: AGATTAACATTTCAAACCACTTCCTGCAATTAGACG
In the case of B32, the binding signal was 7750 PBM fluorescence, median of replicate spots.

B33: Table S2 A row 1188 (dsDNA)
DNA 1: CCCACTGCGCCAGGATGTGGTCAGGTCGGTGACGTT
DNA 2: AACGTCACCGACCTGACCACATCCTGGCGCAGTGGG
Regarding B33, the binding signal was 9170 PBM fluorescence, median of replicate spots.

B34: Table S2 A row 550 (dsDNA)
DNA 1: AGCAGGTATACCACTTCCTGTGGTTATCATTTGAGG
DNA 2: CCTCAAATGATAACCACAGGAAGTGGTATACCTGCT
For the molecule B34, the binding signal was 8000 PBM fluorescence, median of replicate spots.

B35: Table S2 A row 895 (dsDNA)
DNA 1: TCAAGTTTGGTAACAGGATGTGGTAGGAGGAACACA
DNA 2: TGTGTTCCTCCTACCACATCCTGTTACCAAACTTGA
With B35, the binding signal was 13400 PBM fluorescence, median of replicate spots.

B36: Table S2 A row 1496 (dsDNA)
DNA 1: GCACTGTAGGCAGGATGTGGGCAGGGGAAACTCAGG
DNA 2: CCTGAGTTTCCCCTGCCCACATCCTGCCTACAGTGC
With B36, the binding signal was 9520 PBM fluorescence, median of replicate spots.

B37: Table S2 A row 647 (dsDNA)
DNA 1: CCCAGCCCTGCTGCCGGATGTGGTGAGGCCCAGGTG
DNA 2: CACCTGGGCCTCACCACATCCGGCAGCAGGGCTGGG
B37: the binding signal is 13200 PBM fluorescence, median of replicate spots.

B38: Table S2 A row 489 (dsDNA)
DNA 1: TCTAAATCACTTCCTGTTACAGAAACCACAGGCCTG
DNA 2: CAGGCCTGTGGTTTCTGTAACAGGAAGTGATTTAGA
For B38, the binding signal was 13000 PBM fluorescence, median of replicate spots.

B39: Table S2 A row 1376 (dsDNA)
DNA 1: CTCTGGCAGGAAGCTCTGAGGGCTAAACCACAAAAA
DNA 2: TTTTTGTGGTTTAGCCCTCAGAGCTTCCTGCCAGAG
On to B39, for which the binding signal was 8390 PBM fluorescence, median of replicate spots.

B40: Table S2 A row 99 (dsDNA)
DNA 1: CTTAGCACTTCAGCCGGAAACCACAGCATACATTTC
DNA 2: GAAATGTATGCTGTGGTTTCCGGCTGAAGTGCTAAG
B40: the binding signal was 10100 PBM fluorescence, median of replicate spots.

B41: Table S2 A row 1234 (dsDNA)
DNA 1: GCTGGTATGGCAGGAAGTTTCTCACCACAGTATACT
DNA 2: AGTATACTGTGGTGAGAAACTTCCTGCCATACCAGC
Consider B41, for which the binding signal was 8760 PBM fluorescence, median of replicate spots.

B42: Table S2 A row 658 (dsDNA)
DNA 1: AGCTAGGACAGGATGTGAAAACCACACTGACAAAGT
DNA 2: ACTTTGTCAGTGTGGTTTTCACATCCTGTCCTAGCT
In the case of B42, the binding signal is 11800 PBM fluorescence, median of replicate spots.
